Reference: the nanobody polyreactivity screen of Harvey et al. (2022)

Test: yeast display, Sf9 membrane polyspecificity reagent, FACS + sequencing; frameworks hold sequencing errors
How it was run: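 Polyreactivity labels are assigned by the sorting gate from which each nanobody was recovered. The gates were low and high (top ~1%), set on anti-HA fluorescence for expression and streptavidin fluorescence for reagent binding. Before sorting, galactose-induced (36–48 hours) yeast display cells were stained for 1 hour at 4 °C with 10% biotinylated, detergent-solubilized Sf9 membrane reagent.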

Sequence | polyreactivity (PSR sort gate)
QVQLVESGGGLVQAGGSLRLSCAASGFIFRYYTMRWYRQAPGKERELVAVITSGGTTYYADSVKGRFTISRDNAMNTVYLQMNSLKPEDTAVSYCAADYRPRLYGVGVDYWGQGTQVTVSS | low polyreactivity
QVQLVESGGGLVQAGGSLRLSCAASGIIFKSYVMGWYRQAPGKEREFVARITYRGGSTYYADSVKGRFTISRDNAKNTVYLQMNSLKPEDTAVYYCNKKNPQDLTENGYWGQGTQVTVSS | high polyreactivity
QVQLVESGGGLVQAGGSLRLSCAASGRIYRYAMGWYRQAPWKERELVASISRRGGSTYYADSVKGRFTISRDNAKNTVYVQMNSLKPEDTALYSCNAYGYSFCYDYWGHGTQVTVSS | high polyreactivity
QVQLVESGGGLVQAGGSLRLSCAASGIIFADYAMGWSRQAPGKERELVAAISSGDSTYYADSVKGRFTMSLDNAKNTVYLQMNSLKPEDTAVYYSAARLFRNKYRIAKMNYWGQGTQVTVSS | high polyreactivity
QVQLVESGGGLVQAGGSLRLSCSASGFTFSWYAMGWYRQAPGKDRELVAAINADGGTTYYADSVKGRFTISRDNAKNTVYLQMNSLKPEDTAVYYCADELSVDKYDYWGQGTQVTVSS | low polyreactivity
QVQLVESGGGLVQAGGSLRLSCAASGSIFRHYAMGWYRQAPGKERELVAAISAIGGSTYADSVKGRFTISRDNAKNTVYLQMNSLKPEDTAVYYCNARSYTSYVYHEAGEFDYWGQGTQVTVSS | low polyreactivity
QVQLVESGGGLVQAAGSLRVSCAASGSIFYGYAMGGYRKAPGKERELVAAITTVGSTYADSVKGRFTISRDNAKNTVYLQMNSLKPEDTAVYYCNARDYERTRRYLIVYSRYGYWGHGTQVTVSS | low polyreactivity
QVQLVESGGGLVQAGGSLRLSCAASGRIFNQYGMGWYSQARGKERELVAAIRSGDSTNYADSVKGRFTISRDNAKNTVYLQMNSLKPEDTAVDYCARDRPGDYAGYDYWGQGTQVTVSS | low polyreactivity
QVQLVESGGGLVQAGGSLRLSCAASGSTSSNNAMGWYRQAPGKERELVADISTNGDSTSYADSVKGRFTISRDNAKNTVYLQMNSLKPEDTAVYYCAASTYVTYWEYDFWGQGTQVTVSS | low polyreactivity
QVQLVESGGGLVQAGGSLRLSCAASGRIFRYYAMGWYRQAPGKERELVAAISWSGSSTYYADSVKGRFTISRDNAKNTVFLQMNSLKPEDTAVYYCDALILSKSEYYWGQGTQVSVSS | high polyreactivity
QVQLVESGGGLVQAGGSLRLSCAASGSIFSPNDMGWYRQAPGKERELVAAITSAGSTYYADSVKGRFTISRDNAKNTVYLQMNSLKPDDTAVYYCAATYISVTDYAYFPLWYGYWGQGTQVTVSS | low polyreactivity
QVQLVESGGGLVQAGGSLRLSCAASGGTIGSNTMGWYRQAPGKERELVAAITSGVSTNYADSVKGRFTISRDNAKNTVYLQMISLKPEDNAVYYCAKVLWSEEYETIITSYGFDYWGQGTQVTVSS | low polyreactivity
QVQLVESGGGLVQAGGSLRLSCAASGSTFYRNTMGWYRQAPGKERELVAAIRRSGSSTYYADSVKGRFTISRDNAKNTVYLQMNSLKPDDTAVYYCAKEGLSYRYYYCGQGTQVTVSS | high polyreactivity
QVHLVESGGGLVQAGGSLRLSCADYGSNLYYKAMGWYRQAPGKEMQVVAAISTGGRTNYADSVKGRFTISRDNAKNTVYLQMNSLKPEDSAVYYCAAETTTEITDTDYDYWGQGTQVTVSS | low polyreactivity
QVQLVESGGGLVQAGGSLRLSCAASGRIFGRYALGWYRQAPGKERELVAAISSSGGSTYFADSVKGRFTISRDNAKNTVYLQMNSLKPEDTAGYYCAADVSAKRYYWGQGTQVTVSS | high polyreactivity
QVQLVESGGGLVQAGGSLRLSCAASGLTFSHYAMGWYRQAPRKERELVAGISSRGGNTYYADSVKGRFTISRDNAKNTVYLQMNSLKPEDTAVYYCNAPKPKRAYDYWGQGTQVTVSS | high polyreactivity

Sequence | polyreactivity (PSR sort gate)
QDQLVESGGGLVQAGGSLRLSCAASGFIFSQYAMGWYRHAPGKERELVAAISTSGGSTYYADSVKGRFTISRDNAKNTVYLQMNSLKPEDTAVYYCAAARITRGRRYDYWGQGTQVTVSS | high polyreactivity
QVHLVESGGGLVQAGGSLRLSCAASGRIFNPNAMGWYRQAPGKERELVAAITSGDSTNYADSVKGRFTISRDNAKNTVYLQMNSLKPEDTAVYYCAADWTYPYNSWGQGTQVTVSS | low polyreactivity
QVQLVESGGGLVQAGGSLRLSSAASGSIFVHYAMGWYRQAPGKEREFVAAISRGGGTTYYADSVKGRFTISRDNAKNTVYLQLNCLKPEDNAVYYCNAVRFFEHDYWGQGTQVTVSS | high polyreactivity
QVQLVESGGGLGQAGGSLRLSCAASGRIFVGYAMGWYRQAPGKERELVAAIDVGGGSTYYADSVKGRFTISRDNAKNTVYLQMNSLKPEDTAVYYCAADAFGWSSYWPYDYWGQGTQVTVSS | low polyreactivity
QVQLEESGGGLVQAGGSLRLSGAASGRTSDGYAMGWYRQAPGKERELVAGITEGGGDTYYADSVKGRFTMSRDTAKNTVYLQMNSLKPEDPALYYCNAVEGSRLPYDYGGQGTQVTVSS | low polyreactivity
HVQLVESGGGLVQAGGSLRLSCAASRRTFGWYAMGWYRQAPGKERELVAAISLSGGSTYYADSVKGRFTISRDNAKNTVYLQRNSLKPDVTAVYDCAAADYWLGYDYWGQGSQVTVSS | low polyreactivity
QVQLVESGGGLVQAGGSLRLSCAASGSTFNRTPMGWYRQAPGKERELVAGISAGGRTYYTDSVKGRFTISRDNAKNTVYLLMNSLKPEDTAVYDCGTTSWWRCDLHTYLLTHYDYWGQGSQVTVSS | low polyreactivity
QVQLVESGGGLVQAGGSLRLRCAASGSTFAVYAMGWYRQAPGKERELVATIRWNGGSTYYADSVKGRFTISRDNAKNTVYLQMNSLKPEDTAVYYCAAPPIRPNLYDYWGQGTQVTVSS | high polyreactivity
QVQLVESGGGLVQAGGSLRLSCAASGSIFVEYAMGWYRQAPGQERELVAAISYSGSSTNYADSVKGRFTISRDNAKNTVYLQINSLKPEDTAVYYSNADGTGGEQKPYYELDYWGQGTQVTVSS | low polyreactivity
QVQLVESGGGLVQAGGSLRISCAASGSIFHDNAMGWYRQAPGKERELVAASTTSGGNTYYADSVKGRFTISRDNAKNTVYLLMNSLKPEDTAVYYCAAGQSVFASWLDNGWSAYTYYYWGQGTQVTVSS | low polyreactivity
QVQLVESGGGLVQAGGSLRLSCAASGSIFRGYAMGWYRQAPGKERELVAAITFSGGSTYADSVKGRFTISRDNAKNTVYFQMNSLKPEDTAVYDCAAKRTGHNWFTVYPYYSWGQGTQVTVSS | low polyreactivity
QVQLVESGGGLVQAGGSLRLSCAASGFIFRRYAMGWYRQAPGKERELVAAIRSDGSTNYADSVKGRFTISRDNAKNTVYLQMNSLKPEDTAVYDCAATYYSYTWFSQYYYWGQGTQVTVSS | high polyreactivity
QVQLVESGGGLVQAGGSLRLSCAASGRIFQYDVMGWYRQAPGKERELVARITYNGGGTYYADSVKGRFTISRDTAKNTVYLQMNSLKPEDTAVYYCNARYPWRDWEDDYWGQGTQVTVSS | low polyreactivity
QVQLVESGGGLVQAGGSLRLSCAASGFTFVWYAMGWYRQAPGKEREFVAAINRSGGSTYYADSVKGRFTISRDNAKNTVYLQMNSLKPEDTAVYYCAAESWRGWSEFYYWGQGTQVTVSS | high polyreactivity
QVQLVESGGGLVQAGGSLRLSCAASGYIFRLYTMGWYRQAPGKERELVAAISYSGGSTYYADSVKGRFTISRDNAKNTVYLQMNSLKPEDTAVYYCAAEDWRGYRWIRYGYWGQGTQVTVSS | low polyreactivity
QVQLVESGGGLVQAGGSLRLSCAASGSTFFVYTMGWYRQAPGKERELVAAISGSGGSTSYADSVKGRFTISRDNAKNTVYLQMNSLKPEDTAVYYCAARRHVYLRGSTFEFNYWGQGTQVTVSS | high polyreactivity
